Results: patent US20260070984A1 (Boehringer Ingelheim, published 2026)

Columns and labels:
[1] = target: human PD-1 expressed on cells (human, UniProt Q15116 25-288); assay: cell-based or functional assay
recombinant human PD-1 = target: T1, recombinant human PD-1 (human, UniProt Q15116 25-167, limits assumed); assay: SPR, ProteOn XPR36
T1 construct: Soluble recombinant protein used in SPR; also called PDCD1; purified recombinant human PD-1
Method: Kinetics and binding affinities were measured using the ProteOn™ XPR36 (Biorad, Hercules, CA) surface plasmon resonance optical biosensor using material generated from transient transfection following single column purification.

Chain of human PD-1 expressed on cells (Q15116 25-288): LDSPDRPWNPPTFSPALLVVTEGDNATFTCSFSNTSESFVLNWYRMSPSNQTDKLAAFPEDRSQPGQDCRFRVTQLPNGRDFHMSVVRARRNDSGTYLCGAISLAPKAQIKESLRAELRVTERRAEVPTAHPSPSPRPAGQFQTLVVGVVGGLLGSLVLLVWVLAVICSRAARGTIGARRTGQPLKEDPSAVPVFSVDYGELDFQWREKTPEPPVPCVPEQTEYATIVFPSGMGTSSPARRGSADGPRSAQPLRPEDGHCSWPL
T1 sequence (Q15116 25-167 limits assumed): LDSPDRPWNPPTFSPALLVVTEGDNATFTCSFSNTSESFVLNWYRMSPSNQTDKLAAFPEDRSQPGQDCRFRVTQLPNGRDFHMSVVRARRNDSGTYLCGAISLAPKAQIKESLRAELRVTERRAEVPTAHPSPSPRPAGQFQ

Row | Binder | Emax Values (%), inhibition of NFAT activity [1] [%] | IC50 Values (nM), inhibition of NFAT activity [1] [nM] | Kd (recombinant human PD-1) [nM] | koff (recombinant human PD-1) [s⁻¹] | kon (recombinant human PD-1) [M⁻¹ s⁻¹]
1 | 803E6 (mouse IgG1 backbone) (antibody, V domains shown) VH: EVKLVESEGGLVQPGSSMKLSCTASGFTFSDYYMAWVRQVPEKGLEWVANINYDGFNTYYLDSLKSRFIISRDNAKNILYLQMSSLKSEDTATYYCARGGYWSLYFDYWGQGTTLTVSS VL: DIVMTQSPSSLTVTAGEKVTMSCKSSQSLLHSGNQKNYMTWYQQKPGQPPKLLIYWASTRESGVPDRFTGSGSGTDFTLTISSVQAEDLAVYYCQNDYSYPLTFGAGTKLELK | 48.3 | 0.38 |  |  | 
2 | Chimeric 803E6 (antibody, V domains shown, Mouse variable domains in human IgG4Pro (Ser228Pro) backbone; also called 803E6 in human IgG4Pro backbone) VH: EVKLVESEGGLVQPGSSMKLSCTASGFTFSDYYMAWVRQVPEKGLEWVANINYDGFNTYYLDSLKSRFIISRDNAKNILYLQMSSLKSEDTATYYCARGGYWSLYFDYWGQGTTLTVSS VL: DIVMTQSPSSLTVTAGEKVTMSCKSSQSLLHSGNQKNYMTWYQQKPGQPPKLLIYWASTRESGVPDRFTGSGSGTDFTLTISSVQAEDLAVYYCQNDYSYPLTFGAGTKLELK |  |  | 5.02 | 0.00053 | 106000
3 | 709A6 (mouse IgG1 backbone) (antibody, V domains shown) VH: QVTLKESGPGILQPSQTLSLTCSFSGFSLSTSGMGVSWIRQPSGKGLEWLTHIYWDDDKRYNPSLKSRLTISKDTSRNQVFLEITSVDTADTATYFCARSSQGLYSSYDYWGQGTTLTVSS VL: DIVLTQSPASLAVSLGQRATISCRASESVDIYGISFLHWYQQKPGQPPKHLIYRASNLDSGIPARFSGSGSRTDFTLTINPVETDDVATYYCQQSNKDPLTFGAGTKLELK | 29.8 | 0.04 |  |  | 
4 | Chimeric 709A6 (antibody, V domains shown, Mouse variable domains in human IgG4Pro (Ser228Pro) backbone; also called 709A6 in human IgG4Pro backbone) VH: QVTLKESGPGILQPSQTLSLTCSFSGFSLSTSGMGVSWIRQPSGKGLEWLTHIYWDDDKRYNPSLKSRLTISKDTSRNQVFLEITSVDTADTATYFCARSSQGLYSSYDYWGQGTTLTVSS VL: DIVLTQSPASLAVSLGQRATISCRASESVDIYGISFLHWYQQKPGQPPKHLIYRASNLDSGIPARFSGSGSRTDFTLTINPVETDDVATYYCQQSNKDPLTFGAGTKLELK |  |  | 5.52 | 0.000483 | 87400
5 | Chimeric 814E10 (antibody, V domains shown, Mouse variable domains in human IgG4Pro (Ser228Pro) backbone; also called 814E10 in human IgG4Pro backbone) VH: QIQLQQSGPELVKPGASVKISCKASGYTFTSYYIQWVKQRPGQGLEWIGWIYPGDGTTNYNENFKGKTTLTADKSSSTVYMLLSSLTSEDSAVYFCARYGLVPFDYWGQGTTLTVSS VL: DIQMTQTTSSLSASLGDRVTISCSASQDIINYLNWYQQKPDGTVKLLIYSTSSLHSGVSLRFSGSGSGTDYSLTISNLEPEDVATYYCHQYSQLPYTFGGGTKLEIK |  |  | 1.85 | 0.000149 | 80700
6 | Chimeric 708E4 (antibody, V domains shown, Mouse variable domains in human IgG4Pro (Ser228Pro) backbone; also called 708E4 in human IgG4Pro backbone) VH: QIQLQQSGPELVKPGASVKISCKASGYTFTDYYLNWVKQRPGHGLEWIGWIYPGSSDTKHNENFKGKATLTVDTYSSTAYMQLGSLTSEDSAVYFCTRYSNFFFDYWGQGTTLTVSS VL: DIVMTQSQKFLSTSVGDRVRVTCKASQNVVTYVAWYQQKPGQSPKSLIYSASYRYSGVPDRFTGSGSGTYFTLTINNVQFEDLAEYFCQQYHSYPYTFGGGTKLEIK |  |  | 8.08 | 0.000348 | 43100
7 | Chimeric 313C12 (antibody, V domains shown, Mouse variable domains in human IgG4Pro (Ser228Pro) backbone; also called 313C12 in human IgG4Pro backbone) VH: EVQLVESGGGLVKPGGSLKLSCAASGFTFSDYGMHWVRQTPEKGLEWIAYINSDSNTIYYADTVKGRFTISRDNARKTLYLQMTSLRSEDTAMYYCSPLVAPDYWGQGTTLTVSS VL: DIVMTQSQKFMSTTVGDRVSITCKASQNVGTAVAWYQQKPGQSPKLLIYSVSNRYTGVPDRFTGSGSGTDFTLTISNMQSEDLADYFCQQYSSYPFTFGAGTKLELK |  |  | 0.859 | 5.77e-05 | 67100
8 | 502H1 (mouse IgG1 backbone) (antibody, V domains shown) VH: QVTLKESGPGILQPSQTLSLTCSFSGFSLSTSGMGVTWIRKPSGQGLEWLAHIFWDGDKRYNPSLKSRLTISKDSSSNQVFLMITGVGTADAATYYCARYYYFDYGYAIDYWGQGTSVTVSS VL: DIVMTQAAFYNPVTLGTSASISCRSSKSLLHRNGITYLYWYLQKPGQSPQLLIYQMSNLASGVPDRFSSSGSGADFTLRISRVEAEDVGVYYCAQNLELPLTFGAGTKLELK | 48.9 | 0.34 |  |  | 
9 | 307A3 (mouse IgG1 backbone) (antibody, V domains shown) VH: EVQLQQSGPELVKPGASVKISCKASGYTFTDYYVNWVKQSHGKSLEWFGDIHPNNGGITYNQKFKGKASLTVDKSSSTAYMELRSLTSEDSAVYYCARRRYDYDGFAYWGQGTLVTVSA VL: EIVMTQAAFSNPVTLGTSASISCRSSKSLLHRNGITYLYWYLQKPGQSPQLLIYEMSNLASGVPDRFSGSGSGTDFTLRISRVEAEDVGVYYCGQNLEFPLTFGAGTKLELK | 42.6 | 1.03 |  |  | 
10 | Chimeric 306E6 (antibody, V domains shown, Mouse variable domains in human IgG4Pro (Ser228Pro) backbone; also called 306E6 in human IgG4Pro backbone) VH: EVQLQQSGPELVKPGSSVKISCKASGYTFTDYYVNWVKQSHGKSLEWFGDIHPNSGDTTYNQKFKDKATLTVDKSSSTAYMELRSLTSEDSAVYYCARRRYDYDGFAYWGQGTLVTVSA VL: EIVMTQAAFSNPVTLGTSASISCRSSKSLLHRNGITYLYWYLQKPGQSPQLLIYEMSNLASGVPDRFSSSGSGTDFTLRISRVEAEDVGVYYCGQNLEFPLTFGAGTKLELK |  |  | 56.4 | 0.00765 | 136000
11 | Chimeric 502H1 (antibody, V domains shown, Mouse variable domains in human IgG4Pro (Ser228Pro) backbone; also called 502H1 in human IgG4Pro backbone) VH: QVTLKESGPGILQPSQTLSLTCSFSGFSLSTSGMGVTWIRKPSGQGLEWLAHIFWDGDKRYNPSLKSRLTISKDSSSNQVFLMITGVGTADAATYYCARYYYFDYGYAIDYWGQGTSVTVSS VL: DIVMTQAAFYNPVTLGTSASISCRSSKSLLHRNGITYLYWYLQKPGQSPQLLIYQMSNLASGVPDRFSSSGSGADFTLRISRVEAEDVGVYYCAQNLELPLTFGAGTKLELK |  |  | 6.39 | 0.000349 | 54700
12 | Chimeric 307A3 (antibody, V domains shown, Mouse variable domains in human IgG4Pro (Ser228Pro) backbone; also called 307A3 in human IgG4Pro backbone) VH: EVQLQQSGPELVKPGASVKISCKASGYTFTDYYVNWVKQSHGKSLEWFGDIHPNNGGITYNQKFKGKASLTVDKSSSTAYMELRSLTSEDSAVYYCARRRYDYDGFAYWGQGTLVTVSA VL: EIVMTQAAFSNPVTLGTSASISCRSSKSLLHRNGITYLYWYLQKPGQSPQLLIYEMSNLASGVPDRFSGSGSGTDFTLRISRVEAEDVGVYYCGQNLEFPLTFGAGTKLELK |  |  | 63.5 | 0.0074 | 116000
13 | 701C1 (mouse IgG1 backbone) (antibody, V domains shown) VH: EVQLQQSGPELVKPGASVKMSCKASGYTFTSYVIHWVKQKPGQGLEWIGYIDPSNDDTKYNEKFKGKATLTSDKSSSTAYMELSSLTSEDSAVYYCAREAYYGGLYGMDYWGQGTSVTVSS VL: not shown | 53.2 | 1.69 |  |  | 
14 | Chimeric 701C1 (antibody, V domains shown, Mouse variable domains in human IgG4Pro (Ser228Pro) backbone; also called 701C1 in human IgG4Pro backbone) VH: EVQLQQSGPELVKPGASVKMSCKASGYTFTSYVIHWVKQKPGQGLEWIGYIDPSNDDTKYNEKFKGKATLTSDKSSSTAYMELSSLTSEDSAVYYCAREAYYGGLYGMDYWGQGTSVTVSS VL: not shown |  |  | 13 | 0.000305 | 23400
15 | Chimeric 414A12 (antibody, V domains shown, Mouse variable domains in human IgG4Pro (Ser228Pro) backbone; also called 414A12 in human IgG4Pro backbone) VH: QVQLQQPGAELVKPGASVKLSCKASGHTFTSNWIHWVKQRPGQGLEWIGEIDPSDSYTYYNQKFKGKATLTVDKSSSTAYMQLSSLTSEDSAVYSCACPGRNSNFAYWGQGTTLTVSS VL: DILMTQSPSSMSVSLGDTVSITCHASQGINNNIGWLQQKPGKSFKGLIYHKSNLEDGVPSRFSGSGSGADYSLTISSLESEDFADYYCVQYAQFPYTFGGGTKLEIK |  |  | 1.5 | 0.000269 | 180000
16 | 701E9 (mouse IgG1 backbone) (antibody, V domains shown) VH: QVQLQQSGPELVKPGASVKLSCKASGYTFIDYTIHWVKQSPGQGLEWIGWIFPGSTNDTKYNDKFKGKATMTADKSSSTAYMQLSSLTSEDSAVYFCARYRTDFDYWGQGTTLTVSS VL: DIQMTQSPSSLSASLGERVSLTCRASQEISGYLSWLQQKPDGTIKRLIYAASTLDSGVPKRFSGSRSGSDYSLTISSLESEDFADYYCLQYASYPLTFGAGTKLELK | 46 | 0.22 |  |  | 
17 | 811G3 (mouse IgG1 backbone) (antibody, V domains shown) VH: QIQLQQSGPEVVKPGASVKISCKASGYTFTDYYINWVKQRPGQGLEWIGWIYPGGGHTKYNEKFKGEATLTVDTSSRTAYMQLSSLTSEDSAVYFCARYSNYYFDFWGHGTTLTVSS VL: DIQMTQSPSSLSASPGERVSLTCRASQEISGYLSWLQQKPDGTIKRLIYVASTLDSGVPKRFSGSRSGSDYSLTISSLESEDFADYYCLQYANYPYTFGGGTKLEIK | 44.5 | 0.14 |  |  | 
18 | Chimeric 811G3 (antibody, V domains shown, Mouse variable domains in human IgG4Pro (Ser228Pro) backbone; also called 811G3 in human IgG4Pro backbone) VH: QIQLQQSGPEVVKPGASVKISCKASGYTFTDYYINWVKQRPGQGLEWIGWIYPGGGHTKYNEKFKGEATLTVDTSSRTAYMQLSSLTSEDSAVYFCARYSNYYFDFWGHGTTLTVSS VL: DIQMTQSPSSLSASPGERVSLTCRASQEISGYLSWLQQKPDGTIKRLIYVASTLDSGVPKRFSGSRSGSDYSLTISSLESEDFADYYCLQYANYPYTFGGGTKLEIK |  |  | 9.14 | 0.000801 | 87700
19 | Chimeric 701E9 (antibody, V domains shown, Mouse variable domains in human IgG4Pro (Ser228Pro) backbone; also called 701E9 in human IgG4Pro backbone) VH: QVQLQQSGPELVKPGASVKLSCKASGYTFIDYTIHWVKQSPGQGLEWIGWIFPGSTNDTKYNDKFKGKATMTADKSSSTAYMQLSSLTSEDSAVYFCARYRTDFDYWGQGTTLTVSS VL: DIQMTQSPSSLSASLGERVSLTCRASQEISGYLSWLQQKPDGTIKRLIYAASTLDSGVPKRFSGSRSGSDYSLTISSLESEDFADYYCLQYASYPLTFGAGTKLELK |  |  | 1.62 | 0.000143 | 88300
